From the supplement of paper PMC10567573 come the findings set out here.

First the molecules themselves.
B1: IKZF1 (parent)
chain: RDPFECNMCGYHSQDRYEFSSHIT
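Note: lentivirally expressed fusions sorted by FACS into six bins by GFP to DsRed ratio, PSI derived from sequencing read proportions per bin multiplied by bin number.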

Variants of B1 are the subject of this series. The series can be described thus: protein stability index of a GFP-peptide fusion (GPS, HEK-293T) (PSI 1-6); higher = more stable. The settings on record: c terminus: a fixed tail appended.
RDPFECNMCGYHSQDRYEFISHIT [S20I]: the protein stability index is 2.06.

For RDPFECNMCGYHSQDRYEFFSHIT [S20F], the protein stability index was determined as 1.59.

For the variant RDPFECNMCGYHSQDRYEFRSHIT [S20R], the protein stability index came to 2.08.

On to RDPFECNMCGYHSQDRYEFHSHIT [S20H], for which the protein stability index is 2.21.

Take RDPFECNMCGYHSQDRYEFKSHIT [S20K]: the protein stability index turned out to be 1.93.

Consider RDPFECNMCGYHSQDRYEFQSHIT [S20Q], for which the protein stability index worked out at 1.94.

Regarding RDPFECNMCGYHSQDRYEFWSHIT [S20W], the protein stability index came to 2.15.

Turning to RDPFECNMCGYHSQDRYEFVSHIT [S20V], the protein stability index is 2.16.

Turning to RDPFECNMCGYHSQDRYEFTSHIT [S20T], the protein stability index is 2.04.

Consider RDPFECNMCGYHSQDRYEFNSHIT [S20N], for which the protein stability index is 2.08.

With RDPFECNMCGYHSQDRYEFCSHIT [S20C], the protein stability index is 3.08.

As for RDPFECNMCGYHSQDRYEFPSHIT [S20P], the protein stability index came to 2.51.

On to RDPFECNMCGYHSQDRYEFGSHIT [S20G], for which the protein stability index came to 2.05.

On to RDPFECNMCGYHSQDRYEFASHIT [S20A], for which the protein stability index was 2.13.

Regarding RDPFECNMCGYHSQDRYEFESHIT [S20E], the protein stability index came out at 2.64.

As to RDPFECNMCGYHSQDRYEFYSHIT [S20Y], the protein stability index came to 1.71.

In the case of RDPFECNMCGYHSQDRYEFDSHIT [S20D], the protein stability index was 2.3.

RDPFECNMCGYHSQDRYEFLSHIT [S20L]: the protein stability index was 2.44.

For RDPFECNMCGYHSQDRYEFMSHIT [S20M], the protein stability index was 2.06.

As to RDPFECNMCGYHSQDRYEFSSHIN [T24N], the protein stability index came out at 2.23.

Consider RDPFECNMCGYHSQDRYEFSSHIE [T24E], for which the protein stability index is 2.47.

RDPFECNMCGYHSQDRYEFSSHIA [T24A]: the protein stability index is 2.42.

In the case of RDPFECNMCGYHSQDRYEFSSHIP [T24P], the protein stability index came out at 2.32.

As for RDPFECNMCGYHSQDRYEFSSHIH [T24H], the protein stability index turned out to be 2.38.

In the case of RDPFECNMCGYHSQDRYEFSSHIV [T24V], the protein stability index amounted to 1.85.

Take RDPFECNMCGYHSQDRYEFSSHID [T24D]: the protein stability index is 2.68.

Consider RDPFECNMCGYHSQDRYEFSSHIL [T24L], for which the protein stability index came out at 2.19.

In the case of RDPFECNMCGYHSQDRYEFSSHIR [T24R], the protein stability index turned out to be 2.24.

Take RDPFECNMCGYHSQDRYEFSSHIM [T24M]: the protein stability index was determined as 1.57.

As for RDPFECNMCGYHSQDRYEFSSHII [T24I], the protein stability index is 2.28.

Regarding RDPFECNMCGYHSQDRYEFSSHIK [T24K], the protein stability index is 2.52.

Regarding RDPFECNMCGYHSQDRYEFSSHIG [T24G], the protein stability index amounted to 1.74.

RDPFECNMCGYHSQDRYEFSSHIF [T24F]: the protein stability index amounted to 1.95.

With RDPFECNMCGYHSQDRYEFSSHIY [T24Y], the protein stability index was 1.39.

As to RDPFECNMCGYHSQDRYEFSSHIQ [T24Q], the protein stability index is 2.18.

Take RDPFECNMCGYHSQDRYEFSSHIW [T24W]: the protein stability index came to 2.71.

Take RDPFECNMCGYHSQDRYEFSSHIS [T24S]: the protein stability index turned out to be 1.75.

Turning to RDPFECNMCGYHSQDRYEFSSHIC [T24C], the protein stability index was 5.1.

Take RDPFECNMCGYHSQDRYEFSSHWT [I23W]: the protein stability index is 1.77.

As to RDPFECNMCGYHSQDRYEFSSHQT [I23Q], the protein stability index stood at 2.21.

Regarding RDPFECNMCGYHSQDRYEFSSHAT [I23A], the protein stability index worked out at 2.23.

As for RDPFECNMCGYHSQDRYEFSSHET [I23E], the protein stability index worked out at 3.48.

Turning to RDPFECNMCGYHSQDRYEFSSHLT [I23L], the protein stability index was 2.15.

In the case of RDPFECNMCGYHSQDRYEFSSHHT [I23H], the protein stability index stood at 2.57.

In the case of RDPFECNMCGYHSQDRYEFSSHCT [I23C], the protein stability index amounted to 2.59.

Regarding RDPFECNMCGYHSQDRYEFSSHTT [I23T], the protein stability index was found to be 2.36.

Take RDPFECNMCGYHSQDRYEFSSHRT [I23R]: the protein stability index came out at 2.

Turning to RDPFECNMCGYHSQDRYEFSSHVT [I23V], the protein stability index came out at 2.43.

With RDPFECNMCGYHSQDRYEFSSHST [I23S], the protein stability index was 2.5.

Take RDPFECNMCGYHSQDRYEFSSHMT [I23M]: the protein stability index turned out to be 2.27.

Turning to RDPFECNMCGYHSQDRYEFSSHFT [I23F], the protein stability index was found to be 2.03.

Take RDPFECNMCGYHSQDRYEFSSHGT [I23G]: the protein stability index stood at 2.43.

As to RDPFECNMCGYHSQDRYEFSSHKT [I23K], the protein stability index turned out to be 2.75.

Consider RDPFECNMCGYHSQDRYEFSSHNT [I23N], for which the protein stability index worked out at 2.28.

In the case of RDPFECNMCGYHSQDRYEFSSHPT [I23P], the protein stability index is 2.35.

As to RDPFECNMCGYHSQDRYEFSSHYT [I23Y], the protein stability index amounted to 1.82.

RDPFECNMCGYHSQDRYEFSSHDT [I23D]: the protein stability index amounted to 3.32.

With RDPFECNMCGYHSQDRYEFSSRIT [H22R], the protein stability index was found to be 1.58.

For the variant RDPFECNMCGYHSQDRYEFSSQIT [H22Q], the protein stability index was 2.02.

On to RDPFECNMCGYHSQDRYEFSSPIT [H22P], for which the protein stability index was 2.12.

Consider RDPFECNMCGYHSQDRYEFSSCIT [H22C], for which the protein stability index is 2.54.

In the case of RDPFECNMCGYHSQDRYEFSSKIT [H22K], the protein stability index turned out to be 1.92.

With RDPFECNMCGYHSQDRYEFSSSIT [H22S], the protein stability index came to 1.88.

As for RDPFECNMCGYHSQDRYEFSSFIT [H22F], the protein stability index came out at 1.97.

For the variant RDPFECNMCGYHSQDRYEFSSNIT [H22N], the protein stability index came out at 2.28.

On to RDPFECNMCGYHSQDRYEFSSIIT [H22I], for which the protein stability index was 1.83.

With RDPFECNMCGYHSQDRYEFSSTIT [H22T], the protein stability index was determined as 2.08.

In the case of RDPFECNMCGYHSQDRYEFSSLIT [H22L], the protein stability index was determined as 1.81.

With RDPFECNMCGYHSQDRYEFSSDIT [H22D], the protein stability index turned out to be 2.7.

With RDPFECNMCGYHSQDRYEFSSMIT [H22M], the protein stability index is 1.79.

Take RDPFECNMCGYHSQDRYEFSSVIT [H22V]: the protein stability index is 1.75.

With RDPFECNMCGYHSQDRYEFSSAIT [H22A], the protein stability index was found to be 2.15.

Regarding RDPFECNMCGYHSQDRYEFSSGIT [H22G], the protein stability index was 2.17.

Consider RDPFECNMCGYHSQDRYEFSSYIT [H22Y], for which the protein stability index is 2.84.

RDPFECNMCGYHSQDRYEFSSEIT [H22E]: the protein stability index was 2.55.

Regarding RDPFECNMCGYHSQDRYEFSSWIT [H22W], the protein stability index worked out at 1.65.

Take RDPFECNMCGYHSQDRYEFSYHIT [S21Y]: the protein stability index is 1.57.

In the case of RDPFECNMCGYHSQDRYEFSFHIT [S21F], the protein stability index amounted to 2.06.

Take RDPFECNMCGYHSQDRYEFSWHIT [S21W]: the protein stability index stood at 2.31.

On to RDPFECNMCGYHSQDRYEFSEHIT [S21E], for which the protein stability index stood at 2.27.

With RDPFECNMCGYHSQDRYEFSLHIT [S21L], the protein stability index amounted to 2.03.

For the variant RDPFECNMCGYHSQDRYEFSKHIT [S21K], the protein stability index was 2.28.

On to RDPFECNMCGYHSQDRYEFSMHIT [S21M], for which the protein stability index is 1.84.

For the variant RDPFECNMCGYHSQDRYEFSHHIT [S21H], the protein stability index came out at 2.63.

With RDPFECNMCGYHSQDRYEFSTHIT [S21T], the protein stability index came to 2.35.

For RDPFECNMCGYHSQDRYEFSAHIT [S21A], the protein stability index worked out at 1.81.

On to RDPFECNMCGYHSQDRYEFSCHIT [S21C], for which the protein stability index was determined as 2.21.

As for RDPFECNMCGYHSQDRYEFSRHIT [S21R], the protein stability index turned out to be 1.84.

Take RDPFECNMCGYHSQDRYEFSPHIT [S21P]: the protein stability index worked out at 2.68.

Turning to RDPFECNMCGYHSQDRYEFSNHIT [S21N], the protein stability index stood at 2.3.

For the variant RDPFECNMCGYHSQDRYEFSGHIT [S21G], the protein stability index worked out at 2.38.

In the case of RDPFECNMCGYHSQDRYEFSVHIT [S21V], the protein stability index was found to be 2.36.

In the case of RDPFECNMCGYHSQDRYEFSDHIT [S21D], the protein stability index amounted to 2.17.

In the case of RDPFECNMCGYHSQDRYEFSIHIT [S21I], the protein stability index was 2.28.

For the variant RDPFECNMCGYHSQDRYEFSQHIT [S21Q], the protein stability index came out at 1.83.
